Our source for the fraction of GRLBDm bound and fraction of GRLBDm bound (with Cep23/DAF-41 added) values is publication PMC7329908.

Assay [1] deals with C. elegans Hsp90 (HSP-90) (C. elegans) (UniProt Q18688). Nature of the assay: AUC; sedimentation velocity with fluorescence detection; 600 nM ATTO 488-labelled GRLBDm, 3 μM unlabelled chaperones and cofactors, no nucleotide; 20 mM HEPES, 20 mM KCl, 5 mM MgCl2, 50 μM dexamethasone, pH 7.5; 42,000 rpm, 20 °C.
For assay [2] the target is unchanged. Nature of the assay: AUC; sedimentation velocity with fluorescence detection; 600 nM ATTO 488-labelled GRLBDm, 3 μM unlabelled chaperones and cofactors, 2 mM ATPγS; 20 mM HEPES, 20 mM KCl, 5 mM MgCl2, 50 μM dexamethasone, pH 7.5; 42,000 rpm, 20 °C.

On to “ATTO 488-labelled GRLBDm, the ligand-binding domain of the human glucocorticoid receptor stabilized by mutagenesis (F602S/A605V/V702A/E705G/M752T) (domain or fragment)”, for which the fraction of GRLBDm bound in assay [1] was found to be 0.49. Moreover, in assay [2], the fraction of GRLBDm bound came out at 0.22 and the fraction of GRLBDm bound (with Cep23/DAF-41 added) stood at 0.28.
